Biological target: FITC-labeled aP-C18 peptide (not stated (P. horikoshii and P. furiosus aP1 were both used))
Assay: fluorescence polarisation

Kd | Substance
46.3 µM | aABCE1 A223S (enzyme)
83 µM | aABCE1 V174S (enzyme)
4.4 µM | aABCE1-ΔN74 (domain or fragment)
6.3 µM | aABCE1 V219S (enzyme)
30.8 µM | aABCE1 R227A (enzyme)
68.1 µM | aABCE1 I170S (enzyme)
